# Patent US20040047860A1 (published 2004)
# T1: rh MCP-2 (human, UniProt P80075 24-99)
# T1 sequence (looked up): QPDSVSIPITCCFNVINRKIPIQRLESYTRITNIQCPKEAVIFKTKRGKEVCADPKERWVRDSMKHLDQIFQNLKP
# T2: rh RANTES (human, UniProt P13501 24-91)
# T2 sequence (looked up): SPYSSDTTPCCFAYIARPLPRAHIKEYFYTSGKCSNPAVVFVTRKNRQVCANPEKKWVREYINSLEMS
# T3: rh MIP-1α (human, UniProt P10147 27-92, limits assumed)
# T3 sequence (looked up): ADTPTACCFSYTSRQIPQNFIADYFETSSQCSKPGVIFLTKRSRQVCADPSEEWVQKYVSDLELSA
# T4: rh LEC (human, UniProt O15467 24-120)
# T4 sequence (looked up): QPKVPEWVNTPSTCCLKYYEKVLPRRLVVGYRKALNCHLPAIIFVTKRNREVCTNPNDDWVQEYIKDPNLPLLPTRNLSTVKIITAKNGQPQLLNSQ
# T5: rh MIP-1β (human, UniProt P13236 24-92)
# T5 sequence (looked up): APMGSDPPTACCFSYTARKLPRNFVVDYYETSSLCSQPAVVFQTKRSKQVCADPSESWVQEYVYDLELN
# Columns and labels:
# [1] = target: recombinant human MCP-1 (human) (UniProt P13500); assay: BIAcore, 5 nM chemokine over ABN912, bound amount after 8 min
# recombinant human MCP-1 (human), sequence (P13500 24-99 limits assumed): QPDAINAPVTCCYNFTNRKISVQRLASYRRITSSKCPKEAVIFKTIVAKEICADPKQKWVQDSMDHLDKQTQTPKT
# [2] = target: recombinant human MCP-1 (human) (UniProt P13500); assay: SPA, inhibition of (125-I)-MCP-1 binding to membranes of CCR2B expressing CHO cells (CHO#84), three independent experiments
# Rec rabbit MCP-1 = Rec rabbit MCP-1 (rabbit, UniProt P28292 24-125, limits assumed); assay: BIAcore, 5 nM chemokine over ABN912, bound amount after 8 min, n = 3
# Rec rabbit MCP-1, sequence (P28292 24-125 limits assumed): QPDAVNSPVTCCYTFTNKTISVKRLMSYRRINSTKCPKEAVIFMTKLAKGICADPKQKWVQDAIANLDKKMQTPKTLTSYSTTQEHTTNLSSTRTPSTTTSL
# Rec guinea pig MCP-1 = Rec guinea pig MCP-1 (guinea pig, UniProt Q08782 24-120, limits assumed); assay: as above
# Rec guinea pig MCP-1, sequence (Q08782 24-120 limits assumed): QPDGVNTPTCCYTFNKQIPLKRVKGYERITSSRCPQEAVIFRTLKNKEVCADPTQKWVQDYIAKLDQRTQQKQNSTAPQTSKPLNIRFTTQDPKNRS
# Rec mouse JE/MCP-1 = target: T6, Rec mouse JE/MCP-1 (mouse, UniProt P10148 24-96, limits assumed); assay: as above
# T6 construct: also called mouse MCP-1
# T6 sequence (P10148 24-96 limits assumed): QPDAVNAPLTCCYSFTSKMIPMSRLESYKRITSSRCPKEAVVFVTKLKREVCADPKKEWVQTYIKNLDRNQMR
# Rec pig MCP-1 = Rec pig MCP-1 (pig, UniProt P42831 24-99); assay: as above
# Rec pig MCP-1, sequence (P42831 24-99 limits assumed): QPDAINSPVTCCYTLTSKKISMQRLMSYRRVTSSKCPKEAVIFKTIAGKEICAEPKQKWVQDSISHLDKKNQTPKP
# Rec dog MCP-1 = Rec dog MCP-1 (dog, UniProt P52203 24-101); assay: as above
# Rec dog MCP-1, sequence (P52203 24-101 limits assumed): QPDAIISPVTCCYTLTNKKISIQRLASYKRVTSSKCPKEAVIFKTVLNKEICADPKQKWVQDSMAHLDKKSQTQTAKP
# Rec rat MCP-1 = Rec rat MCP-1 (rat, UniProt P14844 24-148, limits assumed); assay: as above
# Rec rat MCP-1, sequence (P14844 24-148 limits assumed): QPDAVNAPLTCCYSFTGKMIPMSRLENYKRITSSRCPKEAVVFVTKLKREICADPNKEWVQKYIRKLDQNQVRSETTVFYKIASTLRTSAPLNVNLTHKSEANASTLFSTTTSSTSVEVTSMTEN
# MCP-1 mutant K49A = target: T7, MCP-1 mutant K49A (human, UniProt P13500 24-99); assay: BIAcore, mutant MCP-1 (0.75 to 4 nM) over ABN912 captured on anti-Fcγ
# T7 construct: also called K49 to alanine
# T7 sequence (P13500 24-99 K72A limits assumed): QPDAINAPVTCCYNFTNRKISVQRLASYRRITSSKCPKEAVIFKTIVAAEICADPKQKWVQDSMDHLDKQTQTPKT
# rh MCP-3 = rh MCP-3 (human, UniProt P80098 24-99); assay: BIAcore, 5 nM chemokine over ABN912, bound amount after 8 min, n = 3
# rh MCP-3, sequence (P80098 24-99 limits assumed): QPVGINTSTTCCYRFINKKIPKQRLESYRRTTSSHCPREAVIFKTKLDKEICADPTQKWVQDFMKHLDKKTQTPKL
# rh MCP-2 = target: T1, rh MCP-2; assay: as above
# rh RANTES = target: T2, rh RANTES; assay: as above
# rh MIP-1α = target: T3, rh MIP-1α; assay: as above
# [3] = target: T8, recombinant human eotaxin-1 (human, UniProt P51671 24-97); assay: as above
# T8 construct: also called rh eotaxin
# T8 sequence (P51671 24-97 limits assumed): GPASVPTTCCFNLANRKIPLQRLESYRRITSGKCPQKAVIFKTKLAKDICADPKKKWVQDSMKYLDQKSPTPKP
# rh LEC = target: T4, rh LEC; assay: as above
# rh MIP-1β = target: T5, rh MIP-1β; assay: as above
# rh MCP-4 = rh MCP-4 (human, UniProt Q99616 24-98); assay: as above
# rh MCP-4, sequence (Q99616 24-98 limits assumed): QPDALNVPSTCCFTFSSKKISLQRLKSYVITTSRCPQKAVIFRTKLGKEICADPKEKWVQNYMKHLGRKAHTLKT
# [4] = target: recombinant human MCP-1 (human) (UniProt P13500); assay: BIAcore, ABN912 immobilised, recombinant human MCP-1 in solution, n = 30
binder,measurement,setting,value
"ABN912 antibody (human IgG4/κ anti-human MCP-1 antibody) (antibody, V domains shown) VH: EVQLVQSGGGLVQPGGSLRLSCAASGFTFSHYWMSWVRQAPGKGLEWLANIEQDGSEKYYVDSVKGRFTISRDNAKNSLYLQMNSLRAEDTAVYFCARDLEGLHGDGYFDLWGRGTLVTVSS VL: AIQLTQSPSSLSASVGDRVILTCRASQGVSSALAWYQQKPGKAPKLLIYDASSLESGVPSRFSGSGSGPDFTLTISSLQPEDFATYFCQQFNSYPLTFGGGTKVEIK",Binding to ABN912 (percent compared to recombinant human MCP-1),[1],100%
same,Percent binding of ABN912 (compared to recombinant human MCP-1),[1],100%
same,IC50,[2],0.461 nM
same,Percent binding of ABN912 (compared to recombinant human MCP-1),Rec rabbit MCP-1,0.9%
same,Percent binding of ABN912 (compared to recombinant human MCP-1),Rec guinea pig MCP-1,2.3%
same,Percent binding of ABN912 (compared to recombinant human MCP-1),Rec mouse JE/MCP-1,-0.4%
same,Percent binding of ABN912 (compared to recombinant human MCP-1),Rec pig MCP-1,0.5%
same,Percent binding of ABN912 (compared to recombinant human MCP-1),Rec dog MCP-1,1.3%
same,Percent binding of ABN912 (compared to recombinant human MCP-1),Rec rat MCP-1,-0.2%
same,fold decrease of affinity (against MCP-1),MCP-1 mutant K49A,133 fold
same,Binding to ABN912 (percent compared to recombinant human MCP-1),rh MCP-3,4.3%
same,Binding to ABN912 (percent compared to recombinant human MCP-1),rh MCP-2,6.2%
same,Binding to ABN912 (percent compared to recombinant human MCP-1),rh RANTES,-2.7%
same,Binding to ABN912 (percent compared to recombinant human MCP-1),rh MIP-1α,-2.8%
same,Binding to ABN912 (percent compared to recombinant human MCP-1),[3],52.6%
same,Binding to ABN912 (percent compared to recombinant human MCP-1),rh LEC,-2.8%
same,Binding to ABN912 (percent compared to recombinant human MCP-1),rh MIP-1β,-2.9%
same,Binding to ABN912 (percent compared to recombinant human MCP-1),rh MCP-4,-2.4%
same,Kd,[4],0.043 nM
same,koff,[4],0.0005 s⁻¹
same,kon,[4],1.3e+07 M⁻¹ s⁻¹
